Assay results: PMC6856716
Where two headings read alike, the source gives them in different places.

Assays:
[1] = molecular target: Actin (rabbit skeletal muscle alpha actin), polymerized (F-actin) (rabbit) (UniProt P68135); assay: co-sedimentation
[2] = molecular target: Actin (rabbit skeletal muscle alpha actin), polymerized (F-actin) (rabbit) (UniProt P68135); assay: co-sedimentation; remark: listed apart in the source

Row | co-sedimented talin fragment relative to talin-FL (relative to talin-FL) [1] | co-sedimented talin fragment relative to talin-FL (relative to talin-FL) [2] | Substance
1 | 1.1 | 1.3 | talin N-R11 (C-terminal truncation lacking R12 and the C-terminus), P26039 1-2141
2 | – | 0.68 | talin N-R12 (C-terminal truncation), P26039 1-2294
3 | 1.3 | 1.1 | talin R1-C (truncation lacking the FERM domain), P26039 482-2541
